Measurements taken from patent publication US20110250211A1 (INSTITUT PASTEUR, published 2011).

Columns and labels:
[1] = biological target: T1, human glial fibrillary acidic protein (GFAP) (human, UniProt P14136 1-432); assay: equilibrium competition ELISA in solution (Friguet et al.), GFAP-coated plate
T1 construct: the endogenous protein in fixed human brain sections in the immunolabelling experiments; also called hGFAP
Procedure: (§1) The binding affinity of VHHs was determined as described by FRIGUET et al. (1985, J Immunol Methods, 77:305-319). Briefly, various concentrations of GFAP were incubated in solution overnight at 4° C. with a known quantity of VHH until equilibrium was reached. The VHH concentration had been determined by preliminary ELISA calibrations. 100 μl of solution was transferred to a well of a microtiter plate previously coated with GFAP and was incubated for 20 min at 4° C. The plates were washed with PBS-Tween 0.1%. VHHs were detected with rabbit anti-His tag antibodies (eBiosciences, San Diego, Calif.) followed by adding β-galactosidase-conjugated goat anti-rabbit Igs (Biosys, Compiegne, France) and 4-methylumbelliferyl β-D galactoside (Sigma Aldrich, Saint-Quentin Fallavier, France). Fluorescence was read at 460 nm, after excitation at 355 nm. KD was estimated from the slope of the regression curve obtained by plotting the reciprocal of the fraction of bound antibody versus the reciprocal of the molar concentration of antigen.

[2] = biological target: T2, murine glial fibrillary acidic protein (GFAP) (mouse, UniProt P03995 1-430); assay: Western blot of murine brain extracts
T2 construct: Endogenous protein of brain extracts, brain sections or live brain; also called GFAP in murine brain extracts; GFAP in mouse astrocytes
Procedure: Murine brain extracts were electrophoresed, immunoblotted and incubated with the VHH domains VHH-A10, -B8, -E3 and -E9.
Murine brain proteins (300 mg) were extracted in a potter with 600 μl of NuPage LDS sample buffer (Invitrogen) and kept for […] at 70° C. An aliquot was diluted 1:10 (v/v) with the same sample buffer then treated at 70° C. for 10 min. Following separation by polyacrylamide gel electrophoresis (PAGE) using NuPAGE Novex 4-12% Bis-tris gel (Invitrogen), semi-dry transfer onto Hybond-C (Amersham) and western blotting were carried out using the Xcell II blot module (Invitrogen). Prior to the immunochemical reaction, membranes were blocked in a 4% skimmed milk solution. […] Finally, peroxidase activity was visualized using a chemiluminescent kit (Amersham).

[3] = biological target: T1, human glial fibrillary acidic protein …; assay: competition ELISA (Friguet) after heating 15 min at 75 C and cooling 20 min at 4 C
Procedure: as §1
The heat denaturation of VHH-E9 was adapted to the method described in OLICHON et al. (2007, BMC Biotechnol., 7:7). VHHs are re-suspended in PBS/NaCl 300 mM and are heated for 15 minutes at 75° C. then cooled down at 4° C. for 20 minutes. The binding affinity of VHHs was determined by ELISA as described in Example 1 above.

[4] = biological target: T1, human glial fibrillary acidic protein …; assay: competition ELISA (Friguet) as in Example 1
Procedure: as §1

[5] = biological target: T1, human glial fibrillary acidic protein …; assay: equilibrium competition ELISA in solution (Friguet et al.)
Procedure: as §1

[6] = biological target: T1, human glial fibrillary acidic protein …; assay: immunohistochemistry on human brain paraffin sections
Procedure: Immunostaining of human brain tissue was performed on 5 μm thick paraffin sections. Sections were de-paraffinized in xylene, rehydrated through ethanol (100%, 96%, and 90%) and finally brought to water. They were incubated with 3% hydrogen peroxyde and 20% methanol, to quench for endogenous peroxydases, and washed in water. Non-specific binding was blocked by incubating the sections for 10 minutes in 2% bovine serum albumin in TBS plus 0.5% Tween.
The distribution of VHH-specific immunoreactivity in mouse and human brains sections were examined after aldehyde fixation and membranes permeabilization, using standard procedure for immunostaining. Immunohistochemistry experiments were performed with VHH-A10 (SEQ ID NO: 5) or VHH domain of SEQ ID NO: 3 fused in frame with the Ig CH2 domain and the His tag (SEQ ID NO: 29) were both used. With this construction, the signal could be amplified by using rabbit anti-alpaca Ig polyclonal antibodies as secondary antibodies, in turn labelled by an anti-rabbit goat polyclonal antibody. As previously reported (LAFAYE et al, 1995, above-cited), the results obtained were similar with the His-tagged antibody.

[7] = biological target: T2, murine glial fibrillary acidic protein …; assay: immunohistochemistry on fixed, permeabilized brain sections

T1 sequence (P14136 whole entry): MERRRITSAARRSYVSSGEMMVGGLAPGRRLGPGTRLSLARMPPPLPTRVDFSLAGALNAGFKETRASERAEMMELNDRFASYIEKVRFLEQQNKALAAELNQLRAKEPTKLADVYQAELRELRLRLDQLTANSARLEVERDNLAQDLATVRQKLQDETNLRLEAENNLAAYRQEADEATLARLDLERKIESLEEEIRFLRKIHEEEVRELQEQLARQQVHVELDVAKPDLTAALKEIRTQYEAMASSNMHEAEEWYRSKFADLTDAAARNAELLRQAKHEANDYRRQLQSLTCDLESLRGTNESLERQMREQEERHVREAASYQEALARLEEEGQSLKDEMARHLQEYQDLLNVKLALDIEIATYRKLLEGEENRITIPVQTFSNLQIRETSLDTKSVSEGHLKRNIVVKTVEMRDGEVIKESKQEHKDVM
T2 sequence (P03995 whole entry): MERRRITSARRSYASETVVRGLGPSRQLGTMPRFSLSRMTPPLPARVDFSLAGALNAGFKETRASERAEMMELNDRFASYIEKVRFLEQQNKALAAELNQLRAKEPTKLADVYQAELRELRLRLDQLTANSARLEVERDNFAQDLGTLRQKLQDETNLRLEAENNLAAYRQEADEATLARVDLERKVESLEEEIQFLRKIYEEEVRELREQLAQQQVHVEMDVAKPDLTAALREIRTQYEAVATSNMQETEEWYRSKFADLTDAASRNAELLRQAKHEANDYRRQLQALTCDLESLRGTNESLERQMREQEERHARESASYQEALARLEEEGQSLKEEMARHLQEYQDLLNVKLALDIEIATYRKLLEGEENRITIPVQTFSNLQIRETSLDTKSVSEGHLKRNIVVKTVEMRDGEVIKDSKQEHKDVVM

Row | Binder | Kd [1] | binding result [2] | other results
1 | VHH-E9 (VHH, Alpaca VHH with C-terminal His tag; also called anti-GFAP VHH-E9; native VHH-E9) VHH: DVQLQVSGGGSVQPGGSLRLSCAASGFTFSNYAMYWLRQAPGKGIEWVSRIGPGGSHTEYADSVKGRFTISRDNAKNTLSLQMNSLKPEDTAVYYCAITQQGSGRGQGTQVTVSS | 5.6 nM | binds | Kd [3]: 3.8 nM
2 | VHH-A10 (VHH, Alpaca VHH with C-terminal His tag, expressed in the E. coli periplasm from pET22; also called anti-GFAP VHH-A10; VHH-His) VHH: DVQLRASGGGLVQPGGSLRLSCAASGFTFSNYAMYWLRQAPGKGIEWVSRIGPGGSHTEYADSVKGRFTISRDNAKNTLSLQMNSLKPEDTAVYYCAITQQGSGRGQETQVTVSSAAALEHHHHHH | 3.1 nM | binds | 
3 | VHH-E3 (VHH, Alpaca VHH with C-terminal His tag; also called anti-GFAP VHH-E3) VHH: DVQLQVSGGGSVQPGGSLRLSCAAPGFTFSNYAMYWLRQAPGKGIEWVSRIGPGGSHTEYADSVKGRFAISRDNAKNTLSLQMNSLKPEDTAAYYCAITQQGSGRGRGTQVTVSS |  | binds | 
4 | VHH-E9 SS-free (VHH, also called cysteine-free derivative of VHH E9) VHH: DVQLQVSGGGSVQPGGSLRLSSAASGFTFSNYAMYWLRQAPGKGIEWVSRIGPGGSHTEYADSVKGRFTISRDNAKNTLSLQMNSLKPEDTAVYYSAITQQGSGRGQGTQVTVSSAAALEHHHHHH |  |  | Kd [4]: 12 nM; fold reduction of affinity against native VHH-E9 [4]: 2 fold
5 | VHH-B8 (VHH, One polypeptide entry) VHH: DVQLQVSGGGSVQPGGSLRLSCAAPGFTFSNYAMYWLRQAPGKGIEWVSRIGPGGSHTEYADSVKGRFAISRDNAKNTLSLQMNSLKPEDTAAYYCAITQQGSGRGRGTQVTVSSAAASLSTELEFGSELIPISMADVQLQVSGGGSVQPGGSLRLSCAASGFTFSNYAMYWLRQAPGKGIEWVSRIGPGGSHTEYADSVKGRFTISRDNAKNTLSLQMNSLKPEDTAVYYCAITQQGSGRGRGTQVTVSSAAALEHHHHHH |  | binds | Kd [5]: 5.2 nM
6 | VHH domain of SEQ ID NO: 3 fused in frame with the Ig CH2 domain and the His tag (VHH, the sentence could be read otherwise; also called VHH-A10 fused with the CH2 domain) DVQLRASGGGLVQPGGSLRLSCAASGFTFSNYAMYWLRQAPGKGIEWVSRIGPGGSHTEYADSVKGRFTISRDNAKNTLSLQMNSLKPEDTAVYYCAITQQGSGRGQETQVTVSSAAAAPELLGGPSVFIFPPKPKDVLSISGRPEVTCVVVDVGQEDPEVSFNWYIDGAEVRTANTRPKEEQFNSTYRVVSVLPIQHQDWLTGKEFKCKVNNKALPAPIEKTISKAKLEHHHHHH |  |  | binding result [6]: binds; binding result [7]: binds
